From IntAct's records for PubMed 18432193 come the findings set out here.

To fix the notation:
B1: Protein draper (Drosophila melanogaster (Fruit fly)), Q9W0A0 (parent)
chain: MLPVILIACLAQLVLAQADLKDLDGPNICKRRELYNVDVVYTELQSFQERGSTWCVTFPPRCSTYRIKHRVVNKTKTIAKNRIVRDCCDGYIASAGECVPHCSEPCQHGRCISPEKCKCDHGYGGPACDINCPPGWYGRNCSMQCDCLNNAVCEPFSGDCECAKGYTGARCADICPEGFFGANCSEKCRCENGGKCHHVSGECQCAPGFTGPLCDMRCPDGKHGAQCQQDCPCQNDGKCQPETGACMCNPGWTGDVCANKCPVGSYGPGCQESCECYKGAPCHHITGQCECPPGYRGERCFDECQLNTYGFNCSMTCDCANDAMCDRANGTCICNPGWTGAKCAERICEANKYGLDCNRTCECDMEHTDLCHPETGNCQCSIGWSSAQCTRPCTFLRYGPNCELTCNCKNGAKCSPVNGTCLCAPGWRGPTCEESCEPGTFGQDCALRCDCQNGAKCEPETGQCLCTAGWKNIKCDRPCDLNHFGQDCAKVCDCHNNAACNPQNGSCTCAAGWTGERCERKCDTGKFGHDCAQKCQCDFNNSLACDATNGRCVCKQDWGGVHCETNCRSGYYGENCDKVCRCLNNSSCDPDSGNCICSAGWTGADCAEPCPPGFYGMECKERCPEILHGNKSCDHITGEILCRTGYIGLTCEHPCPAGLYGPGCKLKCNCEHGGECNHVTGQCQCLPGWTGSNCNESCPTDTYGQGCAQRCRCVHHKVCRKADGMCICETGWSGTRCDEVCPEGFYGEHCMNTCACPSANFQCHAAHGCVCRSGYTGDNCDELIASQRIADQSENSSRASVALTLVLMTLFACIIFAVFIYYRRRVSNLKTEIAHVHYTHDTNPPSWPPNHNFDNPVYGMQAETRLLPNNMRSKMNNFDQRSTMSTDYGDDCNASGRVGSYSINYNHDLLTKNLNADRTNPIVYNESLKEEHVYDEIKHKEGYKDPDEYDHLDYSRPSTSQKPHYHRMNDAMLNINQDEEKPSNVKNMTVLLNKPLPPTEPEPQHECFDNTNTNLDNVSTASPSSSPKFLK
partner: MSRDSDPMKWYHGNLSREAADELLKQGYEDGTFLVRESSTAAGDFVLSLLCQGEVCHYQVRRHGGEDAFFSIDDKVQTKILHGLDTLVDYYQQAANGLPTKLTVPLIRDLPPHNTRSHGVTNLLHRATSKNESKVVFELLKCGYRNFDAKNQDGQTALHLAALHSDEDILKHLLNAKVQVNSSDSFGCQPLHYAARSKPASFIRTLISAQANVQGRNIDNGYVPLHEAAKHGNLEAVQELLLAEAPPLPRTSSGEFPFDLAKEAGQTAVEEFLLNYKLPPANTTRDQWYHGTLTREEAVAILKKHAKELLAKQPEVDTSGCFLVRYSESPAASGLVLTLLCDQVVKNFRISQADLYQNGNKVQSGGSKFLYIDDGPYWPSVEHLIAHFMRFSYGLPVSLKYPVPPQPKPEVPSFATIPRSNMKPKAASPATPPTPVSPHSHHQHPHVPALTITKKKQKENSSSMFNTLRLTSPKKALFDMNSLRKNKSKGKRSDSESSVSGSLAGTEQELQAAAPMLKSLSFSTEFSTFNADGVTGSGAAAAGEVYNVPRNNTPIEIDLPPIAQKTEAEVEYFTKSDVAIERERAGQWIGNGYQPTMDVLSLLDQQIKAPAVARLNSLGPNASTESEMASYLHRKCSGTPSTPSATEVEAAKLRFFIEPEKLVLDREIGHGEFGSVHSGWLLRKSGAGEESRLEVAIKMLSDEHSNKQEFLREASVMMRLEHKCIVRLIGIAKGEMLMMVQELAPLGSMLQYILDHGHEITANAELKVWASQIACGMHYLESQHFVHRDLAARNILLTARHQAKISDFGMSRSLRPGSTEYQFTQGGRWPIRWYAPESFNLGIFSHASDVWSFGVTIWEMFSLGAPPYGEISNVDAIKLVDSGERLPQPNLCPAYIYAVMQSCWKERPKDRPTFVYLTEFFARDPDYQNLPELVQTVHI

One assay covers variants of B1. The following applies: with shark_drome Shark.
In the case of Y934F, the “effect of a mutation on the interaction” value is given as “decreasing interaction”.
Y949F: the “effect of a mutation on the interaction” value is listed as “disrupting interaction”.

The variants in the next assay derive from B1. The following applies: with shark_drome Shark. This is another data set of the same source.
For Y949F, the “effect of a mutation on the interaction” value is “decreasing interaction”.
